From paper PMC5724930 (Biochemistry, 2017)

Target: the molecule itself
Assay: SEC; mixtures of the purified proteins; details in the Supporting Information

| Protein | stoichiometry N |
| --- | --- |
| PanD(K119A) (enzyme, E. coli, UniProt P0A790 1-126, looked up) MIRTMLQGKLHRVKVTHADLHYEGSCAIDQDFLDAAGILENEAIDIWNVTNGKRFSTYAIAAERGSRIISVNGAAAHCASVGDIVIIASFVTMPDEEARTWRPNVAYFEGDNEMKRTAAAIPVQVA | 4 |
| aspartate α-decarboxylase (PanD), wild type (from pET28apanD, for SEC) (enzyme, E. coli, UniProt P0A790 1-126, looked up) MIRTMLQGKLHRVKVTHADLHYEGSCAIDQDFLDAAGILENEAIDIWNVTNGKRFSTYAIAAERGSRIISVNGAAAHCASVGDIVIIASFVTMPDEEARTWRPNVAYFEGDNEMKRTAKAIPVQVA | 4 |
